Experimental data: US9266964
Like-named read-outs stand apart in the source and are kept apart here.

Key:
human plasma kallikrein [1] = biological target: T1, human plasma kallikrein (human, UniProt P03952 20-390; P03952 391-638); test: cell-based or functional assay
human plasma kallikrein [2] = biological target: T1, human plasma kallikrein; test: Ki,app, inhibition of human pKal enzyme activity
human plasma kallikrein [3] = biological target: T1, human plasma kallikrein; test: cell-based or functional assay; remark: listed apart in the source
human plasma kallikrein [4] = biological target: T1, human plasma kallikrein; test: Ki,app, inhibition of human pKal enzyme activity; remark: listed apart in the source

T1 sequence (P03952 20-390, chain 1 of 2): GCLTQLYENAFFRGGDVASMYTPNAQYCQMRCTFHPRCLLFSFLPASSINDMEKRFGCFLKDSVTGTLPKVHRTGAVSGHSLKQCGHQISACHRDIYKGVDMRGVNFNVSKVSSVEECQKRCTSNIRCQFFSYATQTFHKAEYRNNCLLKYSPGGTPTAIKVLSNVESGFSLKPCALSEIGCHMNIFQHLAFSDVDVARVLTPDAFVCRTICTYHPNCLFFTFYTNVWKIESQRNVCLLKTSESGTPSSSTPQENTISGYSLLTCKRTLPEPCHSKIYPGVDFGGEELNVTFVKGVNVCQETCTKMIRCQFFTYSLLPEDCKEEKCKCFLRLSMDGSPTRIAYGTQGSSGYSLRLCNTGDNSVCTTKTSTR
T1 sequence (P03952 391-638, chain 2 of 2): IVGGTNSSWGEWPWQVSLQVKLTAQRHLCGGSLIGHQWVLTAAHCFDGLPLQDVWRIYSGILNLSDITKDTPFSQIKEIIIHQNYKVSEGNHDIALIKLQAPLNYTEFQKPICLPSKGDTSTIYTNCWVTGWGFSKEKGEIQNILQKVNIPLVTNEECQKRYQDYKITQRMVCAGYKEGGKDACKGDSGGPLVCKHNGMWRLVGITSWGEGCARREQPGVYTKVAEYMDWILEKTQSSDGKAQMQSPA

% inhibition at 10 nM (human plasma kallikrein [1]) | Ki (human plasma kallikrein [2]) | % inhibition at 10 nM (human plasma kallikrein [3]) | Ki (human plasma kallikrein [4]) | Binder
94.3% | 300 pM |  |  | M200-A10 (Fab, V domains shown, Tested as Fab; printed HC runs into CH1) VH: EVQLLESGGGLVQPGGSLRLSCAASGFTFSHYIMMWVRQAPGKGLEWVSGIYSSGGITVYADSVKGRFTISRDNSKNTLYLQMNSLRAEDTAVYYCAYRRTGVPRRDSFDIWGQGTMVTVSS VL: DIQMTQSPSTLSASVGDRVTITCRASQSISSWLAWYQQKPGKAPNLLIYKASTLESGVPSRFSGSGSGTEFTLTISSLQPDDFATYYCQQYNTYWTFGQGTKVEIK
63.5% | 700 pM |  |  | M198-D12 (Fab, V domains shown, Tested as Fab; printed HC runs into CH1) VH: EVQLLESGGGLVQPGGSLRLSCAASGFTFSLYVMYWVRQAPGKGLEWVSYIVPSGGPTAYADSVKGRFTISRDNSKNTLYLQMNSLRAEDTAVYYCAYRRTGIPRRDAFDIWGQGTMVTVSS VL: DIQMTQSPSTLSASVGDRVTITCRASQSISSWLAWYQQKPGKAPNLLIYKASTLESGVPSRFSGSGSGTEFTLTISSLQPDDFATYYCQQYNTYWTFGQGTKVEIK
96.1% | 400 pM |  |  | M198-A06 (Fab, V domains shown, Tested as Fab; printed HC runs into CH1) VH: EVQLLESGGGLVQPGGSLRLSCAASGFTFSIYSMHWVRQAPGKGLEWVSSIYSSGGPTKYADSVKGRFTISRDNSKNTLYLQMNSLRAEDTAVYYCAYRRTGIPRRDAFDIWGQGTMVTVSS VL: DIQMTQSPSTLSASVGDRVTITCRASQSISSWLAWYQQKPGKAPNLLIYKASTLESGVPSRFSGSGSGTEFTLTISSLQPDDFATYYCQQYNTYWTFGQGTKVEIK
94.9% | 600 pM |  |  | M197-A09 (Fab, V domains shown, Tested as Fab; printed HC runs into CH1) VH: EVQLLESGGGLVQPGGSLRLSCAASGFTFSVYNMHWVRQAPGKGLEWVSSIYPSGGMTTYADSVKGRFTISRDNSKNTLYLQMNSLRAEDTAVYYCAYRRTGIPRRDAFDIWGQGTMVTVSS VL: DIQMTQSPSTLSASVGDRVTITCRASQSISSWLAWYQQKPGKAPNLLIYKASTLESGVPSRFSGSGSGTEFTLTISSLQPDDFATYYCQQYNTYWTFGQGTKVEIK
96.9% | 200 pM |  |  | M198-F09 (Fab, V domains shown, Tested as Fab; printed HC runs into CH1) VH: EVQLLESGGGLVQPGGSLRLSCAASGFTFSVYNMHWVRQAPGKGLEWVSSIYPSGGMTYYADSVKGRFTISRDNSKNTLYLQMNSLRAEDTAVYYCAYRRTGIPRRDAFDIWGQGTMVTVSS VL: DIQMTQSPSTLSASVGDRVTITCRASQSISSWLAWYQQKPGKAPNLLIYKASTLESGVPSRFSGSGSGTEFTLTISSLQPDDFATYYCQQYNTYWTFGQGTKVEIK
97.2% | 100 pM |  |  | M196-C06 (Fab, V domains shown, Tested as Fab; printed HC runs into CH1) VH: EVQLLESGGGLVQPGGSLRLSCAASGFTFSIYSMHWVRQAPGKGLEWVSSIYPSRGMTWYADSVKGRFTISRDNSKNTLYLQMNSLRAEDTAVYYCAYRRTGIPRRDAFDIWGQGTMVTVSS VL: DIQMTQSPSTLSASVGDRVTITCRASQSISSWLAWYQQKPGKAPNLLIYKASTLESGVPSRFSGSGSGTEFTLTISSLQPDDFATYYCQQYNTYWTFGQGTKVEIK
94.1% | 200 pM |  |  | M196-D12 (Fab, V domains shown, Tested as Fab; printed HC runs into CH1) VH: EVQLLESGGGLVQPGGSLRLSCAASGFTFSRYSMRWVRQAPGKGLEWVSVIYPSGGQTYYADSVKGRFTISRDNSKNTLYLQMNSLRAEDTAVYYCAYRRTGIPRRDAFDIWGQGTMVTVSS VL: DIQMTQSPSTLSASVGDRVTITCRASQSISSWLAWYQQKPGKAPNLLIYKASTLESGVPSRFSGSGSGTEFTLTISSLQPDDFATYYCQQYNTYWTFGQGTKVEIK
 |  | 95.4% | 200 pM | M208-F04 (Fab, V domains shown, Tested as Fab; printed HC runs into CH1) VH: EVQLLESGGGLVQPGGSLRLSCAASGFTFSHYLMTWVRQAPGKGLEWVSYISPSGGHTIYADSVKGRFTISRDNSKNTLYLQMNSLRAEDTAVYYCARVARGIAARSRTSFFDYWGQGTLVTVSS VL: DIQMTQSPGTLSLSPGERATLSCRTSQFVNSNYLAWYQQTPGQAPRLLIYGASSRATGIPDRFSGTGYGTDFTLTISRLEPEDYGTYYCQQSSRTPWTFGQGTRVEIK
 |  | 92.4% | 300 pM | M209-E02 (Fab, V domains shown, Tested as Fab; printed HC runs into CH1; amber q written Q) VH: EVQLLESGGGLVQPGGSLRLSCAASGFTFSHYLMTWVRQAPGKGLEWVSYISPSGGHTIYADSVKGRFTISRDNSKNTLYLQMNSLRAEDTAVYYCARVARGIAARSRTILLDQWGQGTLVTVSS VL: DIQMTQSPGTLSLSPGERATLSCRTSQFVNSNYLAWYQQTPGQAPRLLIYGASSRATGIPDRFSGTGYGTDFTLTISRLEPEDYGTYYCQQSSRTPWTFGQGTRVEIK
 |  | 93.4% | 300 pM | M208-G03 (Fab, V domains shown, Tested as Fab; printed HC runs into CH1) VH: EVQLLESGGGLVQPGGSLRLSCAASGFTFSHYLMTWVRQAPGKGLEWVSYISPSGGHTIYADSVKGRFTISRDNSKNTLYLQMNSLRAEDTAVYYCARVARGIAARSRTSYLDYWGQGTLVTVSS VL: DIQMTQSPGTLSLSPGERATLSCRTSQFVNSNYLAWYQQTPGQAPRLLIYGASSRATGIPDRFSGTGYGTDFTLTISRLEPEDYGTYYCQQSSRTPWTFGQGTRVEIK
 |  | 94.2% | 300 pM | M210-G04 (Fab, V domains shown, Tested as Fab; printed HC runs into CH1; amber q written Q) VH: EVQLLESGGGLVQPGGSLRLSCAASGFTFSHYLMTWVRQAPGKGLEWVSYISPSGGHTIYADSVKGRFTISRDNSKNTLYLQMNSLRAEDTAVYYCARVATGIVARSRTRYFDQWGQGTLVTVSS VL: DIQMTQSPGTLSLSPGERATLSCRTSQFVNSNYLAWYQQTPGQAPRLLIYGASSRATGIPDRFSGTGYGTDFTLTISRLEPEDYGTYYCQQSSRTPWTFGQGTRVEIK
 |  | 96.2% | 140 pM | M209-C11 (Fab, V domains shown, Tested as Fab; printed HC runs into CH1; amber q written Q) VH: EVQLLESGGGLVQPGGSLRLSCAASGFTFSHYLMTWVRQAPGKGLEWVSYISPSGGHTIYADSVKGRFTISRDNSKNTLYLQMNSLRAEDTAVYYCAMVGQGIRGRSRTSYFAQWGQGTLVTVSS VL: DIQMTQSPGTLSLSPGERATLSCRTSQFVNSNYLAWYQQTPGQAPRLLIYGASSRATGIPDRFSGTGYGTDFTLTISRLEPEDYGTYYCQQSSRTPWTFGQGTRVEIK
 |  | 95.6% | 160 pM | M210-C12 (Fab, V domains shown, Tested as Fab; printed HC runs into CH1; amber q written Q) VH: EVQLLESGGGLVQPGGSLRLSCAASGFTFSHYLMTWVRQAPGKGLEWVSYISPSGGHTIYADSVKGRFTISRDNSKNTLYLQMNSLRAEDTAVYYCARVAQGIAARSRTSSVDQWGQGTLVTVSS VL: DIQMTQSPGTLSLSPGERATLSCRTSQFVNSNYLAWYQQTPGQAPRLLIYGASSRATGIPDRFSGTGYGTDFTLTISRLEPEDYGTYYCQQSSRTPWTFGQGTRVEIK
 |  | 93.5% | 200 pM | M209-B09 (Fab, V domains shown, Tested as Fab; printed HC runs into CH1; amber q written Q) VH: EVQLLESGGGLVQPGGSLRLSCAASGFTFSHYLMTWVRQAPGKGLEWVSYISPSGGHTIYADSVKGRFTISRDNSKNTLYLQMNSLRAEDTAVYYCARVAQGIVARSRTSYLHQWGQGTLVTVSS VL: DIQMTQSPGTLSLSPGERATLSCRTSQFVNSNYLAWYQQTPGQAPRLLIYGASSRATGIPDRFSGTGYGTDFTLTISRLEPEDYGTYYCQQSSRTPWTFGQGTRVEIK
 |  | 91.2% | 400 pM | M210-G10 (Fab, V domains shown, Tested as Fab; printed HC runs into CH1) VH: EVQLLESGGGLVQPGGSLRLSCAASGFTFSHYLMTWVRQAPGKGLEWVSYISPSGGHTIYADSVKGRFTISRDNSKNTLYLQMNSLRAEDTAVYYCARVARGIAARSRTSYLDFWGQGTLVTVSS VL: DIQMTQSPGTLSLSPGERATLSCRTSQFVNSNYLAWYQQTPGQAPRLLIYGASSRATGIPDRFSGTGYGTDFTLTISRLEPEDYGTYYCQQSSRTPWTFGQGTRVEIK
 |  | 92.8% | 400 pM | M210-H07 (Fab, V domains shown, Tested as Fab; printed HC runs into CH1; amber q written Q) VH: EVQLLESGGGLVQPGGSLRLSCAASGFTFSHYLMTWVRQAPGKGLEWVSYISPSGGHTIYADSVKGRFTISRDNSKNTLYLQMNSLRAEDTAVYYCARVARGIAARSRTRYFDQWGQGTLVTVSS VL: DIQMTQSPGTLSLSPGERATLSCRTSQFVNSNYLAWYQQTPGQAPRLLIYGASSRATGIPDRFSGTGYGTDFTLTISRLEPEDYGTYYCQQSSRTPWTFGQGTRVEIK
 |  | 94.4% | 200 pM | M208-H02 (Fab, V domains shown, Tested as Fab; printed HC runs into CH1) VH: EVQLLESGGGLVQPGGSLRLSCAASGFTFSHYLMTWVRQAPGKGLEWVSYISPSGGHTIYADSVKGRFTISRDNSKNTLYLQMNSLRAEDTAVYYCARVARGIASRSRTRYCDYWGQGTLVTVSS VL: DIQMTQSPGTLSLSPGERATLSCRTSQFVNSNYLAWYQQTPGQAPRLLIYGASSRATGIPDRFSGTGYGTDFTLTISRLEPEDYGTYYCQQSSRTPWTFGQGTRVEIK
 |  | 93.8% | 200 pM | M210-H06 (Fab, V domains shown, Tested as Fab; printed HC runs into CH1) VH: EVQLLESGGGLVQPGGSLRLSCAASGFTFSHYLMTWVRQAPGKGLEWVSYISPSGGHTIYADSVKGRFTISRDNSKNTLYLQMNSLRAEDTAVYYCARVARGIAARSRTRYFDYWGQGTLVTVSS VL: DIQMTQSPGTLSLSPGERATLSCRTSQFVNSNYLAWYQQTPGQAPRLLIYGASSRATGIPDRFSGTGYGTDFTLTISRLEPEDYGTYYCQQSSRTPWTFGQGTRVEIK
 |  | 97.6% | 90 pM | M209-F04 (Fab, V domains shown, Tested as Fab; printed HC runs into CH1; amber q written Q; WSQGTL as printed) VH: EVQLLESGGGLVQPGGSLRLSCAASGFTFSHYLMTWVRQAPGKGLEWVSYISPSGGHTIYADSVKGRFTISRDNSKNTLYLQMNSLRAEDTAVYYCARVARGIAARSRTSYLDQWSQGTLVTVSS VL: DIQMTQSPGTLSLSPGERATLSCRTSQFVNSNYLAWYQQTPGQAPRLLIYGASSRATGIPDRFSGTGYGTDFTLTISRLEPEDYGTYYCQQSSRTPWTFGQGTRVEIK
 |  | 90.9% | 200 pM | M210-B02 (Fab, V domains shown, Tested as Fab; printed HC runs into CH1; amber q written Q) VH: EVQLLESGGGLVQPGGSLRLSCAASGFTFSHYLMTWVRQAPGKGLEWVSYISPSGGHTIYADSVKGRFTISRDNSKNTLYLQMNSLRAEDTAVYYCASVARGIAARSRTSYFNQWGQGTLVTVSS VL: DIQMTQSPGTLSLSPGERATLSCRTSQFVNSNYLAWYQQTPGQAPRLLIYGASSRATGIPDRFSGTGYGTDFTLTISRLEPEDYGTYYCQQSSRTPWTFGQGTRVEIK
